This note sets out measurements from paper PMC5715787, “Structural basis for antibody recognition of the NANP repeats in Plasmodium falciparum circumsporozoite protein” (Proceedings of the National Academy of Sciences of the …, 2017).

The assay concerns the target T1, Ac-…-NH2 peptide (P. falciparum).
T1 sequence (peptide, N-terminal acetyl group; C-terminal NH2 group (amide)): NPNVDPNANPNV
The assay is described as follows: ITC; MicroCal Auto-iTC200; triplicate (or duplicate) experiments; details in SI.

B1: Fab317 (Fab, V domains shown)
VH: QMQLVESGGGVVQPGRSLRLSCTASGFTFSTYAMHWVRQSPGQGLQWVAVISYHSTNKYYEDSVRGRFTISRDNSKNTLYLQMNSLRAEDTAVYYCARDGYSSSFFDFWGQGTLVTVSS
VL: DIQMTQSPSTLSASVGDRVAITCRASQSISRWLAWYQQQPGKAPKLLMSGASVLESGVPSRFSGSGSGTEFTLTISSLQPDDFATYYCQHYNSYFVTFGQGTKVEIK
With B1, the dissociation constant Kd turned out to be 12.1 µM, the dH is -9.66 kcal/mol and the stoichiometry N amounted to 1.72.
